Experimental data: paper PMC10786891, “Massively parallel profiling of RNA-targeting CRISPR-Cas13d”

T1: EsCas13d, nuclease-dead (Eubacterium siraeum, UniProt B0MS50, R295A;H300A;R849A;H854A)
T1 sequence: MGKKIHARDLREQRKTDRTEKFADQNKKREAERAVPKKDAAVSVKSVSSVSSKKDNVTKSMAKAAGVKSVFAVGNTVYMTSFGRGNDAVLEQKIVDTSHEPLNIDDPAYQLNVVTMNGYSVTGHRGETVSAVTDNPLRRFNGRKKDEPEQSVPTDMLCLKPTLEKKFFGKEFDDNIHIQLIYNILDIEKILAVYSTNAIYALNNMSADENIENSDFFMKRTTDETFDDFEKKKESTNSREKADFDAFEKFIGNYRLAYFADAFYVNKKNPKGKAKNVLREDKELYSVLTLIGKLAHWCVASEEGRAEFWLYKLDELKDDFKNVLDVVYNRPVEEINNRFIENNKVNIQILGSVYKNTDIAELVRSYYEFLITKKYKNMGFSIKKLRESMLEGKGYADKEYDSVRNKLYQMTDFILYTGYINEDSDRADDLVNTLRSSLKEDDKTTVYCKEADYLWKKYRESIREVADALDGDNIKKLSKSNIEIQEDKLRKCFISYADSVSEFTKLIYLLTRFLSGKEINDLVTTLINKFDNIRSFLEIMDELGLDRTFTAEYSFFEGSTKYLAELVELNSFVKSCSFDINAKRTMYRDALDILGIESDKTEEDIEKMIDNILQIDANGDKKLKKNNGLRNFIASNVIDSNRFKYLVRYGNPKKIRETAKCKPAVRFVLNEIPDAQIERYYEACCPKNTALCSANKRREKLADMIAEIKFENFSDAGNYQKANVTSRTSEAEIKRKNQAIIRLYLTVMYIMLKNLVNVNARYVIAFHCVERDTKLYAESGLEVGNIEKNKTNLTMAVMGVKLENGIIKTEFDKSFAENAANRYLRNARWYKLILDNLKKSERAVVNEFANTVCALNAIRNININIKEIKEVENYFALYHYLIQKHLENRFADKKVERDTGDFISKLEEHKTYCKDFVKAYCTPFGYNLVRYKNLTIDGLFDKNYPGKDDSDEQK

B1: target 1 A9U,U11G (mixed)
RNA 1: CACCCGUGCAAAAAUGCAGGGGUCUAAAACUGAGCGGAUAACCUCUCUAUGG
RNA 2: GGGAAUGGAUCCACAUCUACGAAUUCGUACCAUAGAGAGGGUUUCCGCUCACCGAGAUCGGAAGAGCACACGU
B2: target 1 insU 3' of 14,insC 3' of 8 (mixed)
RNA 1: CACCCGUGCAAAAAUGCAGGGGUCUAAAACUGAGCGGAUAACCUCUCUAUGG
RNA 2: GGGAAUGGAUCCACAUCUACGAAUUCGUACCAUAGAGAUGGUUAUCCCGCUCACCGAGAUCGGAAGAGCACACGU
B3: target 1 insA 3' of 19,insC 3' of 18 (mixed)
RNA 1: CACCCGUGCAAAAAUGCAGGGGUCUAAAACUGAGCGGAUAACCUCUCUAUGG
RNA 2: GGGAAUGGAUCCACAUCUACGAAUUCGUACCAUAACGAGAGGUUAUCCGCUCACCGAGAUCGGAAGAGCACACGU
B4: target 1 insU 3' of 17,insG 3' of 6 (mixed)
RNA 1: CACCCGUGCAAAAAUGCAGGGGUCUAAAACUGAGCGGAUAACCUCUCUAUGG
RNA 2: GGGAAUGGAUCCACAUCUACGAAUUCGUACCAUAGUAGAGGUUAUCCGGCUCACCGAGAUCGGAAGAGCACACGU
B5: target 1 insG 3' of 7,insA 3' of 7 (mixed)
RNA 1: CACCCGUGCAAAAAUGCAGGGGUCUAAAACUGAGCGGAUAACCUCUCUAUGG
RNA 2: GGGAAUGGAUCCACAUCUACGAAUUCGUACCAUAGAGAGGUUAUCGACGCUCACCGAGAUCGGAAGAGCACACGU
B6: target 1 A20C,C22G (mixed)
RNA 1: CACCCGUGCAAAAAUGCAGGGGUCUAAAACUGAGCGGAUAACCUCUCUAUGG
RNA 2: GGGAAUGGAUCCACAUCUACGAAUUCGUAGCCUAGAGAGGUUAUCCGCUCACCGAGAUCGGAAGAGCACACGU
B7: target 1 insG 3' of 8,insG 3' of 4 (mixed)
RNA 1: CACCCGUGCAAAAAUGCAGGGGUCUAAAACUGAGCGGAUAACCUCUCUAUGG
RNA 2: GGGAAUGGAUCCACAUCUACGAAUUCGUACCAUAGAGAGGUUAUGCCGCGUCACCGAGAUCGGAAGAGCACACGU
B8: target 1 insA 3' of 6,insG 3' of 2 (mixed)
RNA 1: CACCCGUGCAAAAAUGCAGGGGUCUAAAACUGAGCGGAUAACCUCUCUAUGG
RNA 2: GGGAAUGGAUCCACAUCUACGAAUUCGUACCAUAGAGAGGUUAUCCAGCUCGACCGAGAUCGGAAGAGCACACGU
B9: target 1 A1C,U11G (mixed)
RNA 1: CACCCGUGCAAAAAUGCAGGGGUCUAAAACUGAGCGGAUAACCUCUCUAUGG
RNA 2: GGGAAUGGAUCCACAUCUACGAAUUCGUACCAUAGAGAGGGUAUCCGCUCCCCGAGAUCGGAAGAGCACACGU
B10: target 1 insC 3' of 3 (mixed)
RNA 1: CACCCGUGCAAAAAUGCAGGGGUCUAAAACUGAGCGGAUAACCUCUCUAUGG
RNA 2: GGGAAUGGAUCCACAUCUACGAAUUCGUACCAUAGAGAGGUUAUCCGCUCCACCGAGAUCGGAAGAGCACACGU
B11: target 1 insG 3' of 4,insC 3' of 3 (mixed)
RNA 1: CACCCGUGCAAAAAUGCAGGGGUCUAAAACUGAGCGGAUAACCUCUCUAUGG
RNA 2: GGGAAUGGAUCCACAUCUACGAAUUCGUACCAUAGAGAGGUUAUCCGCGUCCACCGAGAUCGGAAGAGCACACGU
B12: target 1 insA 3' of 17,insU 3' of 17 (mixed)
RNA 1: CACCCGUGCAAAAAUGCAGGGGUCUAAAACUGAGCGGAUAACCUCUCUAUGG
RNA 2: GGGAAUGGAUCCACAUCUACGAAUUCGUACCAUAGAUAGAGGUUAUCCGCUCACCGAGAUCGGAAGAGCACACGU
B13: target 1 insU 3' of 12,insU 3' of 5 (mixed)
RNA 1: CACCCGUGCAAAAAUGCAGGGGUCUAAAACUGAGCGGAUAACCUCUCUAUGG
RNA 2: GGGAAUGGAUCCACAUCUACGAAUUCGUACCAUAGAGAGGUUUAUCCGUCUCACCGAGAUCGGAAGAGCACACGU
B14: target 1 insA 3' of 11,insC 3' of 11 (mixed)
RNA 1: CACCCGUGCAAAAAUGCAGGGGUCUAAAACUGAGCGGAUAACCUCUCUAUGG
RNA 2: GGGAAUGGAUCCACAUCUACGAAUUCGUACCAUAGAGAGGUACUAUCCGCUCACCGAGAUCGGAAGAGCACACGU
B15: target 1 insC 3' of 9 (mixed)
RNA 1: CACCCGUGCAAAAAUGCAGGGGUCUAAAACUGAGCGGAUAACCUCUCUAUGG
RNA 2: GGGAAUGGAUCCACAUCUACGAAUUCGUACCAUAGAGAGGUUACUCCGCUCACCGAGAUCGGAAGAGCACACGU
B16: target 1 insG 3' of 14,insG 3' of 2 (mixed)
RNA 1: CACCCGUGCAAAAAUGCAGGGGUCUAAAACUGAGCGGAUAACCUCUCUAUGG
RNA 2: GGGAAUGGAUCCACAUCUACGAAUUCGUACCAUAGAGAGGGUUAUCCGCUCGACCGAGAUCGGAAGAGCACACGU
B17: target 1 insG 3' of 21,insU 3' of 21 (mixed)
RNA 1: CACCCGUGCAAAAAUGCAGGGGUCUAAAACUGAGCGGAUAACCUCUCUAUGG
RNA 2: GGGAAUGGAUCCACAUCUACGAAUUCGUACCGUAUAGAGAGGUUAUCCGCUCACCGAGAUCGGAAGAGCACACGU
B18: target 1 insA 3' of 11,insG 3' of 10 (mixed)
RNA 1: CACCCGUGCAAAAAUGCAGGGGUCUAAAACUGAGCGGAUAACCUCUCUAUGG
RNA 2: GGGAAUGGAUCCACAUCUACGAAUUCGUACCAUAGAGAGGUAUGAUCCGCUCACCGAGAUCGGAAGAGCACACGU
B19: target 1 insC 3' of 20,insG 3' of 10 (mixed)
RNA 1: CACCCGUGCAAAAAUGCAGGGGUCUAAAACUGAGCGGAUAACCUCUCUAUGG
RNA 2: GGGAAUGGAUCCACAUCUACGAAUUCGUACCACUAGAGAGGUUGAUCCGCUCACCGAGAUCGGAAGAGCACACGU
B20: target 1 insU 3' of 22,insA 3' of 21 (mixed)
RNA 1: CACCCGUGCAAAAAUGCAGGGGUCUAAAACUGAGCGGAUAACCUCUCUAUGG
RNA 2: GGGAAUGGAUCCACAUCUACGAAUUCGUACUCAAUAGAGAGGUUAUCCGCUCACCGAGAUCGGAAGAGCACACGU
B21: target 1 insC 3' of 5,insA 3' of 4 (mixed)
RNA 1: CACCCGUGCAAAAAUGCAGGGGUCUAAAACUGAGCGGAUAACCUCUCUAUGG
RNA 2: GGGAAUGGAUCCACAUCUACGAAUUCGUACCAUAGAGAGGUUAUCCGCCAUCACCGAGAUCGGAAGAGCACACGU
B22: target 1 U3G,U11C (mixed)
RNA 1: CACCCGUGCAAAAAUGCAGGGGUCUAAAACUGAGCGGAUAACCUCUCUAUGG
RNA 2: GGGAAUGGAUCCACAUCUACGAAUUCGUACCAUAGAGAGGCUAUCCGCGCACCGAGAUCGGAAGAGCACACGU
B23: target 1 complement block 2-5 (mixed)
RNA 1: CACCCGUGCAAAAAUGCAGGGGUCUAAAACUGAGCGGAUAACCUCUCUAUGG
RNA 2: GGGAAUGGAUCCACAUCUACGAAUUCGUACCAUAGAGAGGUUAUCCCGAGACCGAGAUCGGAAGAGCACACGU
B24: target 1 C2A,U3C (mixed)
RNA 1: CACCCGUGCAAAAAUGCAGGGGUCUAAAACUGAGCGGAUAACCUCUCUAUGG
RNA 2: GGGAAUGGAUCCACAUCUACGAAUUCGUACCAUAGAGAGGUUAUCCGCCAACCGAGAUCGGAAGAGCACACGU
B25: target 1 insC 3' of 14,insU 3' of 2 (mixed)
RNA 1: CACCCGUGCAAAAAUGCAGGGGUCUAAAACUGAGCGGAUAACCUCUCUAUGG
RNA 2: GGGAAUGGAUCCACAUCUACGAAUUCGUACCAUAGAGACGGUUAUCCGCUCUACCGAGAUCGGAAGAGCACACGU
B26: target 1 insA 3' of 11,insG 3' of 4 (mixed)
RNA 1: CACCCGUGCAAAAAUGCAGGGGUCUAAAACUGAGCGGAUAACCUCUCUAUGG
RNA 2: GGGAAUGGAUCCACAUCUACGAAUUCGUACCAUAGAGAGGUAUAUCCGCGUCACCGAGAUCGGAAGAGCACACGU
B27: target 1 G5A,U11A (mixed)
RNA 1: CACCCGUGCAAAAAUGCAGGGGUCUAAAACUGAGCGGAUAACCUCUCUAUGG
RNA 2: GGGAAUGGAUCCACAUCUACGAAUUCGUACCAUAGAGAGGAUAUCCACUCACCGAGAUCGGAAGAGCACACGU
B28: target 1 G5A,A9C (mixed)
RNA 1: CACCCGUGCAAAAAUGCAGGGGUCUAAAACUGAGCGGAUAACCUCUCUAUGG
RNA 2: GGGAAUGGAUCCACAUCUACGAAUUCGUACCAUAGAGAGGUUCUCCACUCACCGAGAUCGGAAGAGCACACGU

Target: T1, EsCas13d, nuclease-dead
Assay: crRNA (strand 1, pre-loaded); Mg2+; 40 mM Tris-HCl pH 7.5, 150 mM NaCl, 6 mM MgCl2, 1 mM DTT, 0.1% Tween-20, 0.2 mg/ml BSA; 25 C; 10 min per concentration, then washed
Settings: tags: His6-TwinStrep-SUMO cleaved; N-terminal SNAP kept (SNAP-Surface 488); label: 3' end held by stalled T7 RNA polymerase

Which Kd does the source give for B1 here?
Its Kd is 0.0101 ± 0.0008 µM.

For B2, which Kd is on record?
Its Kd is 0.09 ± 0.04 µM.

With B3 as the binder, how does the Kd read?
Its Kd is 0.056 ± 0.005 µM.

With B4 as the binder, how does the Kd read?
Its Kd is 0.029 ± 0.005 µM.

With B5 as the binder, how does the Kd read?
The Kd was 0.0105 ± 0.0007 µM.

For B6, which Kd is on record?
The Kd was 0.0392 ± 0.0023 µM.

For B7, which Kd is on record?
The Kd was 0.0071 ± 0.0004 µM.

With B8 as the binder, how does the Kd read?
The Kd was 0.027 ± 0.005 µM.

How did the Kd turn out when B9 was run?
Its Kd is 0.05 ± 0.017 µM.

For B10, which Kd is on record?
Its Kd is 0.0126 ± 0.0008 µM.

With B11 as the binder, how does the Kd read?
Its Kd is 0.0134 ± 0.0011 µM.

B12 was tested. Which Kd did it give?
Its Kd is 0.0134 ± 0.0012 µM.

Which Kd does the source give for B13 here?
The Kd was 0.011 ± 0.0007 µM.

B14 was tested. Which Kd did it give?
The Kd was 0.0123 ± 0.0009 µM.

For B15, which Kd is on record?
Its Kd is 0.0108 ± 0.0004 µM.

With B16 as the binder, how does the Kd read?
Its Kd is 0.0118 ± 0.0007 µM.

B17 was tested. Which Kd did it give?
The Kd was 0.0171 ± 0.0012 µM.

How did the Kd turn out when B18 was run?
Its Kd is 0.0165 ± 0.0007 µM.

For B19, which Kd is on record?
The Kd was 0.0134 ± 0.002 µM.

With B20 as the binder, how does the Kd read?
The Kd was 0.066 ± 0.006 µM.

For B21, which Kd is on record?
Its Kd is 0.0139 ± 0.0016 µM.

For B22, which Kd is on record?
The Kd was 0.0099 ± 0.0007 µM.

For B23, which Kd is on record?
The Kd was 0.0106 ± 0.0006 µM.

B24 was tested. Which Kd did it give?
The Kd was 0.013 ± 0.001 µM.

B25 was tested. Which Kd did it give?
Its Kd is 0.059 ± 0.011 µM.

B26 was tested. Which Kd did it give?
The Kd was 0.0097 ± 0.0005 µM.

Which Kd does the source give for B27 here?
Its Kd is 0.054 ± 0.01 µM.

How did the Kd turn out when B28 was run?
Its Kd is 0.0167 ± 0.0012 µM.
